Measurements published in patent US9382316B2, “Humanized anti-EMAP II antibody and use thereof” (Cell & Bio Co., Ltd., dated 2016).
“And” between values parts separate entries of the source, which are not always exact repeats. Equal values may be shown once.

T1: human EMAPII (endothelial monocyte activating polypeptide II) antigen (human)
T1 chain: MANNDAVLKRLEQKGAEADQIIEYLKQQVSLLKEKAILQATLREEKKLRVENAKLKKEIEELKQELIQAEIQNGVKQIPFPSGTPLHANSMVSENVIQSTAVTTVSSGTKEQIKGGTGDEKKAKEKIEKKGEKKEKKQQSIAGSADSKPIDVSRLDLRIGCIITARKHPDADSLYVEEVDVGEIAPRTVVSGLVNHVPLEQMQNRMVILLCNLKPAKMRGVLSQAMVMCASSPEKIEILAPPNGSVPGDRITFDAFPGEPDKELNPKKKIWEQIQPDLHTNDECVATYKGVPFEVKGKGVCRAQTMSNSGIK


What was measured:
[1] = target: T1, human EMAPII (endothelial monocyte …); assay: ELISA, plate coated with EMAPII antigen, anti-mouse IgG-HRP detection
[2] = target: T1, human EMAPII (endothelial monocyte …); assay: ELISA, plate coated with 2.5 ug/ml EMAPII antigen, anti-human-IgG HRP detection; range over the 3 clones

| Binder | EC50 [1] | EC50 [2] |
| --- | --- | --- |
| mouse anti-EMAPII monoclonal antibody (antibody, V domains shown) VH: QVQLQQSGAELARPGASVKMSCKASGYTFTSYTMHWVKQRPGQGLEWIGYINPSSGFTNYNQKFKDKATLTADKSSSTAYMQLSSLTSEDSAVYYCASRFAYWGQGTLVTVSA VL: DIVMTQSHKFMSTSVGDRVSITCKASQDVSTAVAWYQQKPGQSPKLLIFSASYRYTGVPDRFTGSGSGTDFTFTISSVQAEDLAVYYCQQHYSTPYTFGGGTKLEIK | 0.0209 µg/mL | – |
| mouse/human chimeric antibody BAP015_1 (antibody, V domains shown) VH: QVQLQQSGAELARPGASVKMSCKASGYTFTSYTMHWVKQRPGQGLEWIGYINPSSGFTNYNQKFKDKATLTADKSSSTAYMQLSSLTSEDSAVYYCASRFAYWGQGTLVTVSA VL: DIVMTQSHKFMSTSVGDRVSITCKASQDVSTAVAWYQQKPGQSPKLLIFSASYRYTGVPDRFTGSGSGTDFTFTISSVQAEDLAVYYCQQHYSTPYTFGGGTKLEIK | – | 0.0215 µg/mL and 0.0302 µg/mL |
